The results in this text go back to the nanobody polyreactivity screen of Harvey et al. (2022).

The series is described as follows: yeast display, Sf9 membrane polyspecificity reagent, FACS + sequencing; frameworks hold sequencing errors. In a few lines:
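Using colony PCR, genes from sorted yeast display clones were amplified, then sequenced on MiSeq at 2 × 250 and filtered by CDR length. The clones had been stained with 10% biotinylated, detergent-solubilized Sf9 membrane reagent for 1 hour at 4 °C and sorted by FACS into low and high (top ~1%) gates on anti-HA and streptavidin fluorescence. Polyreactivity labels come from the gate of origin.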
With “QVQLVESGGGIVQAGGSLRLSCAASGSSHGYAMGWYRQAPGKERELVAAISLNTGSTYYADSVNGRFTISRDNAKNTVYLQMNSLKPEDTAVYFCNADDYTYATYEYDYWGQGTQVTVSS”, the “polyreactivity (PSR sort gate)” value is “low polyreactivity”.
Consider “QVQLVESGGCLVQAGGSRSLSCAASGSIFYRNAMGWYRQAPGKERELVAAIRGSDGSTYYADSVKGRFTISRDNGKNTVYLQMNSLKPEDTAVYSCNADTPTWPLDYWGQGTQVTVSS”, for which the “polyreactivity (PSR sort gate)” value is “low polyreactivity”.
“QVQLVESGGGLVQAGGSLRLSCAASGRIFGWYAMGGYRQAPGKERELVAAITSGGRTKYADSVKGRLTISRDNAKNTVYLQMNSLKPEDTAVYYCAARPQISSFDGLYYWGQGTQVTVSS”: the “polyreactivity (PSR sort gate)” value is “high polyreactivity”.
On to “QVQLVESGGGLVQPGGSLRLRCAASGSTLAYYTMGWSRHAPGKEMELVAAISGSGGSTYYADSVKGRFTIARDNAKNTVYLQMNSLKPEDSAVYYSIAVLYYYTSSEYDYWGQGTQVTVSS”, for which the “polyreactivity (PSR sort gate)” value is recorded as “high polyreactivity”.
“QVQLVESGGGLVQAGGSLRLSCAASGFIFTYYAMGWYRPAPGKERELVATISSGGGSTYYADSVKGRFTISRDNAKNTVYLQMNSLKPEDTAVYYCAASRRITGIRYLNRYEYWGQGTQVTVSS”: the “polyreactivity (PSR sort gate)” value was “high polyreactivity”.
“QVQLVESGGGLVQAGGSLRLSCAASGFIFGGNAMGWFRQAPGKERELVAAIRSGGSTYYADSVKGRFTISRDNAKNTVYLQMNSLKPEDTAVYYCAAELYDVYDLDYWGQGTQVTVSS”: the “polyreactivity (PSR sort gate)” value is recorded as “low polyreactivity”.
Regarding “QVQLQESGGGLVQAGGSLRLSCEASGYISLAQTIGWYRQAPGKEREFVASIALGSSTYYTDSVKGSFTISRDKEKTTVYLQMNSLKPAETGVYYCAARVGASYAHDYWGQGTQVTVSS”, the “polyreactivity (PSR sort gate)” value is “low polyreactivity”.
The result for “QVQLVESGGGLVQAGGSLRLSCAASGSTFSRYAMGWYRPAPGKERELVAAITRSGGGTHYADSVKGRFTISRDNAKNTVYLQMNSLKPEETAVYYCAKRQSGYRYDYWGQGTEVTVSS” reads “low polyreactivity”; that for “QVQLVESGGGLVQAGGSLRLSCAASGRTFWYYAMGWYRQAPGKEREFVAAISWSGGSTYYADSVKGRFTISRDNAKNTVYLQMNTLKPEDSAVYYCAASPVWWYDYWGQGTQVTVSS”, “low polyreactivity”; that for “QVQLQESGGGLVQAGGSLRLSCAASGYIILQYAMGWYRPAPGKERELVASIARGTSTYYADSVKGRFTISRDNAKNTVYLQMNSLKPEDTAVYYCAVIYSWGLWHDYWGQGTQVTVSS”, “high polyreactivity”.
Take “QVQLVESGGGLVQAGGSLRLSCAASGRIFYSYAMGWYRQAPGKERELVAAISRSGGRTYYADSVKGRFTISRDNAKNTVYLQMNSLKPEDTAVYYCNAYRPRFSTRVDYWGQGTQVTVSS”: the “polyreactivity (PSR sort gate)” value was “high polyreactivity”.
Consider “QVQLVESGGGLVQAGGSLRLSCAPSGGTFYANDMGWYRQAPGKERELVATISKSGGSTYYAESVKRPFTISRDNAKNTVYCQMNSLKPEVTAVYYCAARTTYLYGMYYWGQGTQVTVSS”, for which the “polyreactivity (PSR sort gate)” value is “low polyreactivity”.
Take “QVQLVESGGGLVQAGGSLRLSCAASGSIFARYAMGWYRQAPGKERELVAAISSSGSRTYYADSVKGRFTISRDNAKNTVYLQMNSLKPEDTAVYYCATRYGSASGREYEYWGQGTQVTVSS”: the “polyreactivity (PSR sort gate)” value is on record as “high polyreactivity”.
The result for “QVQLVQSGGGLVQAGGSLRLSCAASGSIFGDYAMGWYRQAPGKEREFVARINVSGTSTFYADSVKGRFTISRDNAKNTVYLQMNSLKPEDTAVYYCAARGLPSNYYYYVHGYIMDYWGQGTQVTVSS” reads “low polyreactivity”; that for “QVQLVESGGGLVQAGGSLRLSCAASGFNFPRYTMGWSRKAPGKEREFVAGITLRGGSTYYADSVKGRFTISRANAKNTVYLQMNSLKPDETAVYYCARVISRGRSFGIGYDYWGQATQVTVSS”, “low polyreactivity”; that for “QVQLVESGRGLVQAGGSLRLSCAASGFTCRWYAIGLYRQAPGKERELVAAISRDGSTNYADSVKGRFTISRDNAKNTVYLQMNSLKPEDTSVYYCAKRYYRYPYSQGDYWGQGTQVTVSS”, “high polyreactivity”.
For “QVQLVESGGGLVQAGGSLRLSCAASGRTFNYYTMGWNRQAPGKEREFVAAITISGARTYYADSVKGRFTISRDNAKNTVYLQMNSLKPEDTAVYYCAARRRYRSRVTPVGYNYWGQGTQVTVSS”, the “polyreactivity (PSR sort gate)” value is “high polyreactivity”.
The result for “QVQLVESGGGLVQEGGSLRLSCAASGSIFGGYVMGWYRQAPGKERELVAAITSGGSTYYADSVKGRFTISRDNAKNTVYLQMNSLKPEDTAVYYCAKDYGDWGQGTQVTVSS” reads “low polyreactivity”.
With “QVQLVESGGGLVQEGGSLRLSCAASGSTFWANAMGWYRQAPGKERELVAGITWNAGSTYYADSVKGRFTISRVDANNSVYLHMNSLKPEDTAVYYCAAFYHFQGWGPGYISWGQGTQVSVSS”, the “polyreactivity (PSR sort gate)” value is given as “low polyreactivity”.
Turning to “QVQLVESGGGLVQAGGSLRLSCAASGRTCKPYAMGWYRQAPGKEREVVAVITSNGSSTYYADSVKGRFTISRDNAKNTVYLQMNSLKPEDTAVYYCATKLTYTLTSGAYAYDYWGQGTQVTVSS”, the “polyreactivity (PSR sort gate)” value is “low polyreactivity”.
“QVQLVESGGGIVQAGGSLRLSCAASGSIFVTNTMVWYRQAPGKERELVAAISYRGGSTYADSVKGRFTISRDNAKNTVYLQMNSLKPEDTAVYYCAADDLSFVGYYYGYVDDVYCGQGTQVTVSS”: the “polyreactivity (PSR sort gate)” value was “high polyreactivity”.
As for “QVQLVESGGGLVQAGGSLRLSCAASGRTFGGYTMGWYRQAPGKERELVAAISWGGGSTYYADSVKGRFTISRDNAKNTVYLQMNSLKPEDTAVYYCAAVSPNLRLFGYRYRYEYWGQGTQVTVSS”, the “polyreactivity (PSR sort gate)” value is recorded as “high polyreactivity”.
For “QVQLLESGGGLVQAGGSLRLSCAASGLTIWRYAMGWYRQAPGKEREFVATISHNGGRTYYADSVKGRFTISRDNAKNSVYLQMNSLKPEDTAVYYCAADDWRWGYDYWGQGTQVTVSS”, the “polyreactivity (PSR sort gate)” value is given as “high polyreactivity”.
“QFQLVESGGGLVQAGGSLRLSCAASGRIFVYNAMGLYRQAPGKEREFVATITSSGGRTYYADSVKGRFTISRDNAKNTVYLQLNSLKPEDTAVYYWAARPQNNGRNPLYRYNYWGQGTQVTVSS”: the “polyreactivity (PSR sort gate)” value is “high polyreactivity”.
Turning to “QVQLVESGGGLVQAVGSLRLSCDATGSTLHKNTMGWYRQAPAKERELVAAISRRGGSTYYADSVKGRFTISRDNAKITVYLQMNSLKPEDTAVYYCATEGYDGEFDYWGQGTQVTVSS”, the “polyreactivity (PSR sort gate)” value is “high polyreactivity”.
Take “QVQLVESGGGLVQAGGSLRLSCAASGRTFLTYVMGRYRQAPGKERELVAAITRGGRTNYADSVKGRFTISRDNAKNTVYLQMNSLKPEDTAVYYCARDDTPRYDYWGQGTQVTVSS”: the “polyreactivity (PSR sort gate)” value was “low polyreactivity”.
As to “QVQLVESGGGLVQAGGSLRLSCAASGRTFPRYAMGWYRQATGKERELVAAISVRAGITYYADSVKGRFTISRDNAKNTVYLQMNSLKPEDTAVYYCAKDHWTTSYDEGDYWGQGTQVTVSS”, the “polyreactivity (PSR sort gate)” value is listed as “low polyreactivity”.
With “QVQLQGSGGGLVQAGGSLRLSCAASGNIFDADIKGWYRQAPGKEIELVASITDGGSTNYADSVKGRFTISRDNAKNTVYLQMYSLKHEDTAVYYCAAIAYPDIPTYFDYDSDCFYWSQGTQVTVSS”, the “polyreactivity (PSR sort gate)” value was “high polyreactivity”.
With “QVQLVESGGGLVQAGGSLRLSCAASGRIFDPNVMVRYRTAPGKERELVAAIRTSGGRTYYADSVKGRFTISRDNAKNTVYLQMNSLKPEDTAVYYCAALYKGKYDYWGQGTQVNVSS”, the “polyreactivity (PSR sort gate)” value is “high polyreactivity”.
As for “QVQLVETGGGLVQAGGSLRLSCAASGIIFSKYAMGRYRQAPGKERELVAAITRSGGSTYYADSVKGRFTISRDNAKNTVYLQMNSLKPEDTAVYYCAKRSGTPTNRQRYGYWGQGTQVTVSS”, the “polyreactivity (PSR sort gate)” value is listed as “high polyreactivity”.
For “QVQLVESGGGLVQAGGSLRLSCADSGRIFGRYAMGWYRQAPGQERELVAGISARGGSTYYADSVKGRFTISRDNAKNTVYLQMNRLKPEDTAVYYCAAAGYRGGGYWGQGTQVTVSS”, the “polyreactivity (PSR sort gate)” value is “high polyreactivity”.
Regarding “QVQLVESGGGLVQAGGSLRLSCAASGSTFWYYAMGWYRQAPGKERELVAAITTGGDTTNYADSVKGRFTISRDNAKNNVYLQMNSLKPADTAVYYCARDTGYDLIVLPDDSWGQGTQVTVSS”, the “polyreactivity (PSR sort gate)” value is given as “low polyreactivity”.
As to “QVQLVESGGGLVLAGGSLRLSCAASGSIFIHYAMGWYRQARGKERELVAAITGDGNTTYADSVKGRFTISRDNAQNTVNLPINSLKPEDTAVYSCAVTIVDYVWAFDYWGQGTQVNVSS”, the “polyreactivity (PSR sort gate)” value was “low polyreactivity”.
For “QVQLVESGGGLVQAGGSLRVSCAASGRIFILNTMGCYRQAPGKETELVAGISYSGSTYYADSVKGRFTISRDNAKNTVYLQMNSLKPEATAVYYCAAEYDAAWYNEGYYYWGQGTQVTVSS”, the “polyreactivity (PSR sort gate)” value is reported as “low polyreactivity”.
“QVQLVETGGGIFQAGGSIRLSCAASGRTFSTYAKGWYRQAPGKERELVAGISRGGGSTYYADSVKGRFTISRDNAKNTVYLLMNSLKPEDTAVYYCAAKRPQYYVQYGYWGQGSQVTVSS”: the “polyreactivity (PSR sort gate)” value is “high polyreactivity”.
Take “QVQLVESGGGLVQAGGSLRLSSAATGITFSSYAMGSYRQAPGKERELVAAISTRGGSTYYADSVKGRFTISRDNAKNTVYLQMNSLKPEDTAVYYCATGGRGGRRYEYWGQGTQVTVSS”: the “polyreactivity (PSR sort gate)” value is listed as “low polyreactivity”.
“QVQLVESGGGLVQAGGSLRLSCAASGRIFSTYAMGWYRQAPGKERELVAAITNSAGSTYYADSVKGLFTISRDNAKNTVYLQMNSLKPEDTAVYYCATGWSRISYGFDYWGQGTQVTVSS”: the “polyreactivity (PSR sort gate)” value is recorded as “low polyreactivity”.
With “QVQLVQSRGGLVQAGGSLRLSCAASGSTFSGNAMGWYRPAPGKEREFVAAITSSGGSTYYADSVKGRFTISRDNAKNSVYLQMNSLKPEDTAVYYCATDNPFLWWFRPDQHGMGYWGQGTQVTVSS”, the “polyreactivity (PSR sort gate)” value was “low polyreactivity”.
“QVQLVESGGGLVQAGGSLRLSCAASGRTFLYYAMGWYRQAPGKERELVAAIDWSDDSTYYADSVKGRFTISRDNAKNTVYLQMNSLKPEDTAVYYCATDGLYLSWQYSWEELYYWGQGTQVTVSS”: the “polyreactivity (PSR sort gate)” value is recorded as “high polyreactivity”.
As for “QVQLVESGGGLVQAGGSLRLSCAASGRTFWVYAMGWYRQAPGKERELVAGISWDDGSTDYADSVKGRFTISRDNAKNTVYLQMNSLKPEDTAVYYCNAGEYYKGYYYWGQGTQVTVSS”, the “polyreactivity (PSR sort gate)” value is “low polyreactivity”.
As for “QVQLVESRGGLVQAGGSLRLSCAASGSTFNYYVMGWYRQAPGKERELVAAISRSGTSTYYADSVKGRFTISRDNAKNTVYLQMNSLKPEDTAVYYCAAYQPYYARTELDYWGQGTQVTVSS”, the “polyreactivity (PSR sort gate)” value was “high polyreactivity”.
